Measured values as given in US20210317225A1 (Genmab, published 2021).

Key:
Human CD137 (TNR9_Human) = Human CD137 (TNR9_Human) (human, UniProt Q07011 24-255); assay: cell-based or functional assay
Human CD40 = Human CD40 (human, UniProt P25942 21-277); assay: cell-based or functional assay
Chain of Human CD40 (P25942 21-277): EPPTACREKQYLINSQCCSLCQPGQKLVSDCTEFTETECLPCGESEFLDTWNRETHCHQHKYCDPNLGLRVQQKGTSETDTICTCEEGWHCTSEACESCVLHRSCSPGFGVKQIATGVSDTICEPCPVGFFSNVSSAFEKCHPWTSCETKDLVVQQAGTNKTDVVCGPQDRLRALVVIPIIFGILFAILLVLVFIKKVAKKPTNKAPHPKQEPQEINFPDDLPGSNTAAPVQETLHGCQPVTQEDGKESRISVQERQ

Chain of Human CD137 (TNR9_Human) (Q07011 24-255): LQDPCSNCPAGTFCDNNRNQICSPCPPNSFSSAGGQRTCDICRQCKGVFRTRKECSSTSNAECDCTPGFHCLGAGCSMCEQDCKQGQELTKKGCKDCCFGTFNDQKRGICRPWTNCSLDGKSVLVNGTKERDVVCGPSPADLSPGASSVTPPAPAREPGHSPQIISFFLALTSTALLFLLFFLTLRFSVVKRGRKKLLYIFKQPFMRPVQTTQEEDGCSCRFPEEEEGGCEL

B1: CD40-001-FEALxCD137-004-FEAR (bispecific antibody, human IgG1, kappa)
heavy 1: EVQLQQSGPDLVKPGASVKISCKTSGYTFTEYIMHWVKQSHGKSLEWIGGIIPNNGGTSYNQKFKDKATMTVDKSSSTGYMELRSLTSEDSAVYYCTRREVYGRNYYALDYWGQGTLVTVSSASTKGPSVFPLAPSSKSTSGGTAALGCLVKDYFPEPVTVSWNSGALTSGVHTFPAVLQSSGLYSLSSVVTVPSSSLGTQTYICNVNHKPSNTKVDKRVEPKSCDKTHTCPPCPAPEFEGGPSVFLFPPKPKDTLMISRTPEVTCVVVAVSHEDPEVKFNWYVDGVEVHNAKTKPREEQYNSTYRVVSVLTVLHQDWLNGKEYKCKVSNKALPAPIEKTISKAKGQPREPQVYTLPPSREEMTKNQVSLTCLVKGFYPSDIAVEWESNGQPENNYKTTPPVLDSDGSFLLYSKLTVDKSRWQQGNVFSCSVMHEALHNHYTQKSLSLSPGK
light 1: DIQMTQTTSSLSASLGDRVTITCSASQGINNYLNWYQQKPDGTVKLLIYYTSSLHSGVPSRFSGSGSGTDYSLTISNLEPEDIATYYCQQYSNLPYTFGGGTKLEIKRTVAAPSVFIFPPSDEQLKSGTASVVCLLNNFYPREAKVQWKVDNALQSGNSQESVTEQDSKDSTYSLSSTLTLSKADYEKHKVYACEVTHQGLSSPVTKSFNRGEC
heavy 2: QSLEESGGRLVTPGTPLTLTCTASGFSLSRYDMSWVRQAPGKGLEYIGVISSSGGTNYANWAKGRFTISKTSTTVDLKITSPTTEDTATYFCAREGDYWDFNLWGPGTLVTVSSASTKGPSVFPLAPSSKSTSGGTAALGCLVKDYFPEPVTVSWNSGALTSGVHTFPAVLQSSGLYSLSSVVTVPSSSLGTQTYICNVNHKPSNTKVDKRVEPKSCDKTHTCPPCPAPEFEGGPSVFLFPPKPKDTLMISRTPEVTCVVVAVSHEDPEVKFNWYVDGVEVHNAKTKPREEQYNSTYRVVSVLTVLHQDWLNGKEYKCKVSNKALPAPIEKTISKAKGQPREPQVYTLPPSREEMTKNQVSLTCLVKGFYPSDIAVEWESNGQPENNYKTTPPVLDSDGSFFLYSRLTVDKSRWQQGNVFSCSVMHEALHNHYTQKSLSLSPGK
light 2: AQVLTQTPSSVSAAVGGTVTINCQASQSISNLLAWYQQKPGQPPKLLIYGASTLASGVPSRFSGSGSGTEFTLTISDLESDDAATYYCAGGFPGLDTVAAFGGGTEAVVTRTVAAPSVFIFPPSDEQLKSGTASVVCLLNNFYPREAKVQWKVDNALQSGNSQESVTEQDSKDSTYSLSSTLTLSKADYEKHKVYACEVTHQGLSSPVTKSFNRGEC
In the case of B1, the “luciferase activity (RLU) of NF-KB/293/GFP-Luc cells transduced with CD137, incubated with K562_CD40” value (Human CD137 (TNR9_Human)) is reported as roughly 100 ng/mL and the “luciferase activity (RLU) of NF-KB/293/GFP-Luc cells transduced with CD40, incubated with K562_CD137” value (Human CD40) is reported as roughly 100 ng/mL.
